# Reference: the RNAGym collection of RNA variant scans (doi:10.1073/pnas.2313332121)
# B1: TPR t1 (parent)
# chain: GACCAAUCUGCCCUCAGAGCUCGAGAACAUCUUCGGAUGCAGAGGAGGCAGGCUUCGGUGGCGCGAUAGCGCCAACGUCCUCAACCUCCAAUGCAUCCCACCACAUGAUGAUGCCUGAAGAGCCUUGGUUUUUUG
# Variants of: B1
# Experiment: polymerase ribozyme fitness, log enrichment relative to wild type (log ratio); higher = more active; in vitro selection for triplet polymerase activity
# How it was run: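 Each subunit of a heterodimeric triplet polymerase ribozyme was mutagenized into a library by PCR, transcribed, and subjected to one round of in vitro selection, run in triplicate. Libraries were annealed with a biotinylated primer, the partner subunit and triplets, incubated frozen at −7 °C, and extended constructs were gel-excised, captured on streptavidin beads and recovered by RT-PCR. Input and output libraries were sequenced on Illumina, keeping genotypes with ≥10 input reads and ≥1 read per output. Fitness is log base 2 of genotype enrichment divided by wild-type enrichment, from inverse-variance-weighted replicate averages.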
row,Variant,polymerase ribozyme fitness (log ratio)
1,C56A G69C,-3.89
2,A43U C82G A119G C123U C124A,-0.662
3,C12A A37U,-1.73
4,A6U C72G C73U A90U C98G C102U A108U C123G,-7.4
5,C12A G45U,-1.63
6,C53G G61U C70U,-0.621
7,C4A G10C C98U G117A A121U,-4.42
8,G69U C88U G120U,0.599
9,G69C C79U G117U U134G,-1.73
10,C53G C115A,-0.163
11,G10A C20U C97G C123U,-3.15
12,G60U C79A,-0.593
13,C40U C88A C101A A121U,-0.199
14,U32A G61A C123G,-1.69
15,A5U C11G,-0.477
16,A2C U21G C72A G77U,-4.23
17,A18U G71U U92G,-5.1
18,C8U A37U C86A,-0.897
19,A50C C56A A66G,-2.8
20,C12A C31U G35A C104G C115U,-6.08
21,A41G G110A U125G U130G,-2.05

row,Variant,polymerase ribozyme fitness (log ratio)
1,C53G U54G G63C,-3.77
2,G35A C123G U129G,-2.61
3,A6U G10C,-0.4
4,G57U A121U,1.92
5,C56U C72A C88U,-1.31
6,C12A C56G A84U,-1.85
7,C15G C56U,-2.17
8,A26G C28U G35A U87G C124A,-4.92
9,U38A U130C,-0.259
10,U54A A95C,-0.767
11,C13U G19U A50G A91U,-2.58
12,G35C G61C U81G G117C,-5.32
13,A2U U106G,-4.83
14,G10A C13A C94U U131A,-1.56
15,C76U C88A U133G,-0.912
16,G39U U106A G127A,-2.14
17,C3U C89A,-2.23
18,C62A C115A,-1.58
19,C70U G71A,-1.05
20,A2U U54C U112G G113A U133A,-2.96
21,U21C G71A C101U G117A,-2.85

row,Variant,polymerase ribozyme fitness (log ratio)
1,U54A C98U U129G U133G,-3.2
2,G10U G45U,-0.583
3,C20A G39U G42A U55C C99U G113C G122A C123U,-6.79
4,G48U A121C,-0.0339
5,A16U G63A,-2.16
6,C31U G51A C73U U106A,-3.91
7,A27U C34U G45U G69U,-5.7
8,G42U G128A,-3.14
9,C8A A26U A46C C56U,-2.74
10,A2U G60U C82G,-3.31
11,A43G C70U,-2.76
12,G63U U125A,-1.51
13,C13A U59G C89G U106C,-3.02
14,C12U C20G U106C,-3.81
15,C62A G117A,-2.71
16,C70G A95U C114A,-6.28
17,G45A C98U U106A,-1.28
18,A68G U87C A111C G135U,-6.03
19,C28G C56G G61A G77A,-2.42
20,C31A U106G G107U,-1.91
21,C53G C86A A119G G120U,-0.713

row,Variant,polymerase ribozyme fitness (log ratio)
1,A43U G45U G110U,-3.95
2,A18U C53A,-2.38
3,U9A C20G C64A U112A G128A,-5.8
4,U59A C70U U112A,0.172
5,G60U G63A,-4.69
6,C3U C49A U92A G113A,-2.63
7,C34G G44A G71A A90G C101U A121U,-6.41
8,U14A C70U U126C G135U,-3.92
9,C70A C99U U109A,-6.83
10,C13U C20U G61U C70U U92C,-4.03
11,C4G G61A U78A A83G C124U U125G,-1.07
12,A50C C53G C73A U126G,-2.99
13,G51C C56U C115U U131A,-4.93
14,G52U A121G,1.06
15,G42A C49U U112C,-0.387
16,C8U C12A G45A C56A,0.0537
17,G42U G44U G45A U54G C89G,-2.57
18,C12A G57A G60A,-0.307
19,G48C C49U A111U U133A,-4.49
20,C8G A29U G60A G77C,-2.46
21,G36U G69U,-0.697
